Source: article PMC4927282

Biological target: caveolin-1 (Cav1) (UniProt Q03135)
Assay: acceptor-photobleaching FRET, CFP/YFP pairs
Settings: reference: Y14F-CFP/Y14F-YFP pair; sites Y14

Sequence of UniProt Q03135 (Q03135 whole entry, stated change not applied): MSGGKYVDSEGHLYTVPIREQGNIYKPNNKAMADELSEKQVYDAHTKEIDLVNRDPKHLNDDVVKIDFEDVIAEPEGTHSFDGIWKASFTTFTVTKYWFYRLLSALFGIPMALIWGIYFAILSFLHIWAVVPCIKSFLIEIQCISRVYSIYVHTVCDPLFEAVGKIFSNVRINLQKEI

other: FRET efficiency: weaker; reference 0.90 ± 0.13
Substance: caveolin-1 (Cav1) (from UniProt Q03135) Y14D-CFP/Y14D-YFP pair
